Source: US20120129720, “APTAMER THAT RECOGNIZES PEPTIDE” (KANAGAWA PREFECTURAL HOSPITAL ORGANIZATION, published 2012)

T1: His-MIF (His-tag/T7 gene 10 leader/Xpress-MIF fusion) (UniProt P14174 P14174:1-115)
T1 chain: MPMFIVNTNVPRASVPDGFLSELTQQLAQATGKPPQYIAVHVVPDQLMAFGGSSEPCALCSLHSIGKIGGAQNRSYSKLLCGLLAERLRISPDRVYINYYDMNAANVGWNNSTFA

B1: X region SEQ 2327 (ssRNA)
RNA: GGGACGCUCACGUACGCUCAAGACUCCUGUGUUUCGGGUGUACUGUCACGAUUCGUUGUCUCAGUGCCUGGACGUGCAGU
modifications: 3' A20 tail for capture
B2: X region SEQ 2324 (ssRNA)
RNA: GGGACGCUCACGUACGCUCAUGGUGUACUGUACCUAUUCGACACUUCUGUUGAUUAGUGAUCAGUGCCUGGACGUGCAGU
modifications: 3' A20 tail for capture
B3: X region SEQ 2309 (ssRNA)
RNA: GGGACGCUCACGUACGCUCACUGGGCGACUAGGUGUACUGGCUAUCACGUUCUGGAUAAGUCAGUGCCUGGACGUGCAGU
modifications: 3' A20 tail for capture
B4: X region SEQ 2328 (ssRNA)
RNA: GGGACGCUCACGUACGCUCAAAUUGUCUUCGCGUUGUCUUGAAUGGGUAAUAGUAGACGAUCAGUGCCUGGACGUGCAGU
modifications: 3' A20 tail for capture
B5: X region SEQ 2320 (ssRNA)
RNA: GGGACGCUCACGUACGCUCAGACGUUCAAGUAAAUUGGCCCUAUAUUUCGUUAUAGUAUGUCAGUGCCUGGACGUGCAGU
modifications: 3' A20 tail for capture
B6: X region SEQ 2313 (ssRNA)
RNA: GGGACGCUCACGUACGCUCAGGUGUACUGUAACCUGCCUGCCACCUGCGGCUUCGCGGACUCAGUGCCUGGACGUGCAGU
modifications: 3' A20 tail for capture
B7: X region SEQ 2337 (ssRNA)
RNA: GGGACGCUCACGUACGCUCAUCGUCGUAGGCGUACUGAUCGAAUCGUACUUACUAUUGCGUCAGUGCCUGGACGUGCAGU
modifications: 3' A20 tail for capture
B8: X region SEQ 2325 (ssRNA)
RNA: GGGACGCUCACGUACGCUCAUACUUCCGGGUGUACUGUAAGCCCUACGCUGGAGGGGCUCUCAGUGCCUGGACGUGCAGU
modifications: 3' A20 tail for capture
B9: X region SEQ 2314 (ssRNA)
RNA: GGGACGCUCACGUACGCUCAAACUUGAUCCUGGUUUCCAGCAGUAUGCCGCGUGAUUUCGUCAGUGCCUGGACGUGCAGU
modifications: 3' A20 tail for capture
B10: X region SEQ 2329 (ssRNA)
RNA: GGGACGCUCACGUACGCUCAAAACCUGUGCUGAUCGCUGUUGGACAGUUCUACAUGCGCAUCAGUGCCUGGACGUGCAGU
modifications: 3' A20 tail for capture
B11: X region SEQ 2315 (ssRNA)
RNA: GGGACGCUCACGUACGCUCAACCCGCGACUAGGUUUUCCUGGCGACCGUCCGGUAGUGUCAGUGCCUGGACGUGCAGU
modifications: 3' A20 tail for capture
B12: X region SEQ 2332 (ssRNA)
RNA: GGGACGCUCACGUACGCUCAUUAGACGUUCUCUACGUCCGUGCCGCCCUGAUCGAGCGACUCAGUGCCUGGACGUGCAGU
modifications: 3' A20 tail for capture
B13: X region SEQ 2321 (ssRNA)
RNA: GGGACGCUCACGUACGCUCAGCACUGCUUACGGGGUCUCCGGCAGUAUGCCCUGGUGUAUUCAGUGCCUGGACGUGCAGU
modifications: 3' A20 tail for capture
B14: X region SEQ 2311 (ssRNA)
RNA: GGGACGCUCACGUACGCUCAAGACGGUGUACUGGCACUUUUACUUCAUUGAGUAGAAAUUCGUCAGUGCCUGGACGUGCAGU
modifications: 3' A20 tail for capture
B15: X region SEQ 2330 (ssRNA)
RNA: GGGACGCUCACGUACGCUCACGCUUUAAUGAUCUGAUCGUGCUUCGCUGCGUAGUAUUGGUCAGUGCCUGGACGUGCAGU
modifications: 3' A20 tail for capture
B16: X region SEQ 2310 (ssRNA)
RNA: GGGACGCUCACGUACGCUCAUGGUGGAUUGGUGCAUCUAUGUCUUCUUACUUGUUAUCAGUGCCUGGACGUGCAGU
modifications: 3' A20 tail for capture
B17: X region SEQ 2335 (ssRNA)
RNA: GGGACGCUCACGUACGCUCACAGGCUGAUCGCUUCUUUACGUCUAAGUAUUGACUUUAGCUCAGUGCCUGGACGUGCAGU
modifications: 3' A20 tail for capture
B18: X region SEQ 2338 (ssRNA)
RNA: GGGACGCUCACGUACGCUCAUGAGACUGAUCGUGACAACUCCUGUAUGUUCGAUCUCAUCUCAGUGCCUGGACGUGCAGU
modifications: 3' A20 tail for capture
B19: X region SEQ 2333 (ssRNA)
RNA: GGGACGCUCACGUACGCUCAAAUGACCCCGAUUCCCCUUUCGUGUUGUCUGAUCGCAGGCUCAGUGCCUGGACGUGCAGU
modifications: 3' A20 tail for capture
B20: X region SEQ 2323 (ssRNA)
RNA: GGGACGCUCACGUACGCUCACUACAAUAAUAUUACCCCUUGUUUUCGUUUAGUCCGGGUUUCAGUGCCUGGACGUGCAGU
modifications: 3' A20 tail for capture
B21: X region SEQ 2316 (ssRNA)
RNA: GGGACGCUCACGUACGCUCACAACUUGUAUUGUCCGGGUGUACUGUACCGAAACUCGUGAUCAGUGCCUGGACGUGCAGU
modifications: 3' A20 tail for capture
B22: X region SEQ 2334 (ssRNA)
RNA: GGGACGCUCACGUACGCUCACACCUAGAGCCUGAACUGCCUAAGCGCUGAUCGGCAUUUAUCAGUGCCUGGACGUGCAGU
modifications: 3' A20 tail for capture
B23: X region SEQ 2317 (ssRNA)
RNA: GGGACGCUCACGUACGCUCAGGUUGAUCCCGUUCUUCUUGACUGGCGCCUUCAUGGAGUGUCAGUGCCUGGACGUGCAGU
modifications: 3' A20 tail for capture
B24: X region SEQ 2322 (ssRNA)
RNA: GGGACGCUCACGUACGCUCAGUUGGUUGCUGUGCAGUCUGGGUGUCUUGGCUUUCGGAUGUCAGUGCCUGGACGUGCAGU
modifications: 3' A20 tail for capture
B25: X region SEQ 2336 (ssRNA)
RNA: GGGACGCUCACGUACGCUCAUCGAUUAGAAUACUCUUUGUGCGCCGUCGGCCUGAUCGUUCAGUGCCUGGACGUGCAGU
modifications: 3' A20 tail for capture
B26: X region SEQ 2318 (ssRNA)
RNA: GGGACGCUCACGUACGCUCAACUCCCUCUUUCGCGGGCUCCUUUCCGCAACACGACUGGCUCAGUGCCUGGACGUGCAGU
modifications: 3' A20 tail for capture
B27: X region SEQ 2331 (ssRNA)
RNA: GGGACGCUCACGUACGCUCAGAGUCGUUAUCUCCUGUACUAAUCACCUACUGAUCGAGCAUCAGUGCCUGGACGUGCAGU
modifications: 3' A20 tail for capture
B28: X region SEQ 2326 (ssRNA)
RNA: GGGACGCUCACGUACGCUCAGGCUACUGGUCAGAGGUUUCCAGCAGAUUUCCUGCCUAAAUCAGUGCCUGGACGUGCAGU
modifications: 3' A20 tail for capture
B29: X region SEQ 2319 (ssRNA)
RNA: GGGACGCUCACGUACGCUCAAAAGUUUUGCACGUUCUCCCGGUGUCCUGGCGCUUGGCUGUCAGUGCCUGGACGUGCAGU
modifications: 3' A20 tail for capture

Target: T1, His-MIF (His-tag/T7 gene 10 …)
Experiment: SPR; data not shown
Settings: MIF 115 aa; ATGen

Binding result, binds:
B1
B2
B3
B4
B5
B6
B7
B8
B9
B10
B11
B12
B13
B14
B15
B16
B17
B18
B19
B20
B21
B22
B23
B24
B25
B26
B27
B28
B29
